Experimental data: article PMC3939493, “Structure of the SAS-6 cartwheel hub from Leishmania major” (eLife, 2014)
Substitutions are numbered along the chain they refer to. Names may count otherwise.

Assays:
SAS-6 [1] = biological target: T1, SAS-6 (Danio rerio, UniProt Q7ZVT3, F131D); assay: SEC-MALS of purified protein with […] PK9119 (oligomerization reduced, less than for L. major); format: biochemical
T1 construct: gene sass6; Dr SAS-6^1–326
T1 sequence (Q7ZVT3 1-326 F131D): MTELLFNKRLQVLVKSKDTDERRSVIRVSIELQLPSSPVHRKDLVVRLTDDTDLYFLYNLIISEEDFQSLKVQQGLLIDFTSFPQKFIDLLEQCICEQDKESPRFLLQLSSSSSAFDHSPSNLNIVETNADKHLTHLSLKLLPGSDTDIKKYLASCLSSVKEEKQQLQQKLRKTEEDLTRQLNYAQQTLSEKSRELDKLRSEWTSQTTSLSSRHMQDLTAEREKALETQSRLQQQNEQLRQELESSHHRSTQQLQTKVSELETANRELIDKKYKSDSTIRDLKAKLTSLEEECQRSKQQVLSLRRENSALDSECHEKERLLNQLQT

SAS-6 [2] = biological target: T2, SAS-6 (Leishmania major, UniProt E9AFQ5); assay: SEC-MALS of purified protein with […] PK9119 (oligomerization reduced); format: biochemical
T2 construct: gene LMJF_35_4280; SAS-6^97–424
T2 sequence (E9AFQ5 97-424): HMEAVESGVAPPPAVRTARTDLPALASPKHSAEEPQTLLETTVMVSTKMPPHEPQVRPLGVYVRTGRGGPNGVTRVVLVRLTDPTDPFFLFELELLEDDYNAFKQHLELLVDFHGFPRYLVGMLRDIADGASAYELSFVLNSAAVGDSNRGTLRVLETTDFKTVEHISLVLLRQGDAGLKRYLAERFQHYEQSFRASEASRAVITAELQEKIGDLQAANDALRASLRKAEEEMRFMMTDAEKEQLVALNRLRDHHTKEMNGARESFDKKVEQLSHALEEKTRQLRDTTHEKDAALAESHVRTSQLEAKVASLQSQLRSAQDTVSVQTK

[3] = biological target: L. major SAS-6^97–424 F257E mutant (Leishmania major); assay: SEC-MALS; Superdex S-200 10/300, 50 mM bisTris, 100 mM NaCl, pH 7.0, 0.126% DMSO, with or without 1 mM PK9119; L. major constructs injected at 25 mg/ml (675 µM monomer), zebrafish constructs at 10 mg/ml (263 µM monomer); peak concentrations about 10-fold lower
[4] = biological target: L. major SAS-6^97–274 wild-type (Leishmania major); assay: AUC; sedimentation equilibrium; 100, 200 and 400 µM protein; 11300, 17000 and 21200 rpm; 4°C; 50 mM Tris, 100 mM NaCl, pH 8.0; monomer-dimer equilibrium model (dimer to monomers)
[5] = biological target: L. major SAS-6^97–274 Y215K mutant (Leishmania major); assay: as above
[6] = biological target: L. major SAS-6^97–320 F257E (Leishmania major); assay: crystal structure; L. major SAS-6^97–320 F257E, sitting drop, 100 mM NaCitrate pH 5.85, 21% PEG-3000, 16°C; 94.7 mg/ml protein; 2.9 Å; four molecules in the asymmetric unit
[7] = biological target: L. major SAS-6^97–424 wild-type (Leishmania major); assay: SEC-MALS; Superdex S-200 10/300, 50 mM bisTris, 100 mM NaCl, pH 7.0, 0.126% DMSO, with or without 1 mM PK9119; L. major constructs injected at 25 mg/ml (675 µM monomer), zebrafish constructs at 10 mg/ml (263 µM monomer); peak concentrations about 10-fold lower
[8] = biological target: the molecule itself; assay: as above

Molecule: CCc1cc(Br)cc2c(CN(C)C)c[nH]c12 [PK9119, (5-bromo-7-ethyl-1H-indol-3-ylmethyl)-dimethyl-amine]
- SEC-MALS of purified protein with 1 mM PK9119 (oligomerization reduced, less tha) (SAS-6 [1]): zebrafish SAS-6 oligomerization was also affected by the presence of PK9119, although to a lesser extent
- SEC-MALS of purified protein with 1 mM PK9119 (oligomerization reduced) (SAS-6 [2]): a decrease in the analysed mass from MALS, demonstrating that PK9119 partially affects head-to-head dimerization

Molecule: L. major SAS-6^97–424 F257E mutant (domain or fragment)
- stoichiometry N [3]: 2

Molecule: L. major SAS-6^97–274 wild-type (domain or fragment)
- Kd [4]: 622 µM

Molecule: L. major SAS-6^97–274 Y215K mutant (domain or fragment)
- Kd [5]: 190 µM

Molecule: L. major SAS-6^97–320 F257E (domain or fragment)
- stoichiometry N [6]: 8

Molecule: L. major SAS-6^97–424 wild-type (domain or fragment)
- stoichiometry N [7]: 6

B1: Danio rerio SAS-6^1–326 F131D mutant (domain or fragment)
chain: GPHMTELLFNKRLQVLVKSKDTDERRSVIRVSIELQLPSSPVHRKDLVVRLTDDTDLYFLYNLIISEEDFQSLKVQQGLLIDFTSFPQKFIDLLEQCICEQDKESPRFLLQLSSSSSAFDHSPSNLNIVETNADKHLTHLSLKLLPGSDTDIKKYLASCLSSVKEEKQQLQQKLRKTEEDLTRQLNYAQQTLSEKSRELDKLRSEWTSQTTSLSSRHMQDLTAEREKALETQSRLQQQNEQLRQELESSHHRSTQQLQTKVSELETANRELIDKKYKSDSTIRDLKAKLTSLEEECQRSKQQVLSLRRENSALDSECHEKERLLNQLQT
notes: Dimer by SEC-MALS; source: E. coli BL21 Rosetta, purified (NiNTA, proteolytic tag cleavage, SEC, ion exchange); not shown: His tag, N-terminal, cleaved
- stoichiometry N [8]: 2

B2: Danio rerio SAS-6^1–326 wild-type (domain or fragment)
chain: B1 chain with D134F
notes: also called zebrafish SAS-6; source: E. coli BL21 Rosetta, purified (NiNTA, proteolytic tag cleavage, SEC, ion exchange); not shown: His tag, N-terminal, cleaved
- binding result [8]: binds
